These results are taken from article doi:10.1101/629683.

This assay concerns the target mCh-vinT12-cBAK (constitutively active, opened form of full-length vinculin, mCherry-tagged, with cBAK) (gallus gallus) (UniProt P12003). As to the kind of experiment: Fluorescence Loss After Photoactivation.
Chain of UniProt P12003 (P12003 whole entry): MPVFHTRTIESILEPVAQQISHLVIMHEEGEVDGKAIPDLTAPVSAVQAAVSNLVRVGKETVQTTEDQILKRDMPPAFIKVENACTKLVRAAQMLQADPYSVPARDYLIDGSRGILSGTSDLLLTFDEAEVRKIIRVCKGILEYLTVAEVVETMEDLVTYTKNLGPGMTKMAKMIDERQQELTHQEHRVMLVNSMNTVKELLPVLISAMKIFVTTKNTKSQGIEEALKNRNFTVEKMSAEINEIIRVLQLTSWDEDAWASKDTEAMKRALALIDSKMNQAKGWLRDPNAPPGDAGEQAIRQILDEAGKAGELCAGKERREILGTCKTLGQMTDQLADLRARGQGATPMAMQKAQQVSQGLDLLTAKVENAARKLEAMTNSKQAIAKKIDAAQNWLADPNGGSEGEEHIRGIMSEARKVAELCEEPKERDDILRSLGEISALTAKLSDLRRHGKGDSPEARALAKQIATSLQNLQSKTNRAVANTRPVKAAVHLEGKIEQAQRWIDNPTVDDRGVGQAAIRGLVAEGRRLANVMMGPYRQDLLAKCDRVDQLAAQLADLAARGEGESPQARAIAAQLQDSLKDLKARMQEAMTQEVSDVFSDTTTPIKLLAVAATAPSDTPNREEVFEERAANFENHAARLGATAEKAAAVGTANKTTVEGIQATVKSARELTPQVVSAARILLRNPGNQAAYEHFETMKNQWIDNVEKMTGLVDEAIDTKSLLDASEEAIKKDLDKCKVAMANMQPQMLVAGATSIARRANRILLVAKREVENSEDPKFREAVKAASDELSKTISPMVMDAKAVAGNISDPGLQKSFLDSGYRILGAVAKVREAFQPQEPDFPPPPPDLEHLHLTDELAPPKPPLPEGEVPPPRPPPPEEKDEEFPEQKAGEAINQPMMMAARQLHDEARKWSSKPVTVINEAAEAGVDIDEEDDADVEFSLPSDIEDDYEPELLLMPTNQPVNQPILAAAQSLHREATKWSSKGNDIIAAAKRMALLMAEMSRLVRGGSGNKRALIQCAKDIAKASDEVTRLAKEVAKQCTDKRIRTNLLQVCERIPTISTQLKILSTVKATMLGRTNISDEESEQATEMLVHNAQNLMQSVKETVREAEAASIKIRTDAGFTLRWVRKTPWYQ

“Photo-Activatable (PA) GFP-TalinFL (from UniProt P26039 1-2541) (natural protein)”: the mobile fraction (Mf) in FLAP is < 20%.
